Results on one molecule are retold here after patent US20050065082A1 (published 2005).

The target of test [1] is T1, GST-BMAL1 (N-terminal GST fusion protein of human BMAL1; BMAL1b was used) (human, UniProt O00327 1-626).
T1 construct: Expressed in E. coli BL21; not shown: glutathione S-transferase (GST) tag encoded by the pGEX-4T vector (Amersham Pharmacia Biotech), N-terminal
Put plainly: not described, Example 3 holds only kinase assays.

The target in test [2] is T2, GST-BPL1 (N-terminal GST fusion protein of human BPL1, holocarboxylase synthetase) (human, UniProt P50747 1-726).
T2 construct: Expressed in E. coli BL21; not shown: glutathione S-transferase (GST) tag encoded by the pGEX-4T vector (Amersham Pharmacia Biotech), N-terminal
T2 sequence: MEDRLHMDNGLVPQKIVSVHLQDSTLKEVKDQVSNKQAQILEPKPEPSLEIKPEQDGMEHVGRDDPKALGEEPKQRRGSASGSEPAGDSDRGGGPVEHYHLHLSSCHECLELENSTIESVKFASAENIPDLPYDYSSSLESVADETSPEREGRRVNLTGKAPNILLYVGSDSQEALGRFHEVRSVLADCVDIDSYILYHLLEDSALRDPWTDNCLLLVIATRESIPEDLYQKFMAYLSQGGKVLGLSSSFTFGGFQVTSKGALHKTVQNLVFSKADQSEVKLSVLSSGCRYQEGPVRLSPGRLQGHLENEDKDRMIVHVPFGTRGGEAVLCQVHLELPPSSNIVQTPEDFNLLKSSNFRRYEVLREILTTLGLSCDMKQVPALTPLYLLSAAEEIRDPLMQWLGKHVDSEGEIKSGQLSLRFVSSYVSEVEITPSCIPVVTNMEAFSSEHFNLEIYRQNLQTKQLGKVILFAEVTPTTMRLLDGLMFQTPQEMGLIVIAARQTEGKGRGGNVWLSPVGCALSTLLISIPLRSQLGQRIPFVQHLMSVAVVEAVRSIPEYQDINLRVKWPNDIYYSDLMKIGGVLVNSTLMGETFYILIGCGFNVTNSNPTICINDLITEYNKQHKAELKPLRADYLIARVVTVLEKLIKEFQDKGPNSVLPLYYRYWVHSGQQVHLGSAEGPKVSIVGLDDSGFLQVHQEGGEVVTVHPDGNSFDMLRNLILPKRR
Put plainly: not described, Example 4 holds only kinase assays.

T1 sequence (O00327 whole entry, the tested form may be a part): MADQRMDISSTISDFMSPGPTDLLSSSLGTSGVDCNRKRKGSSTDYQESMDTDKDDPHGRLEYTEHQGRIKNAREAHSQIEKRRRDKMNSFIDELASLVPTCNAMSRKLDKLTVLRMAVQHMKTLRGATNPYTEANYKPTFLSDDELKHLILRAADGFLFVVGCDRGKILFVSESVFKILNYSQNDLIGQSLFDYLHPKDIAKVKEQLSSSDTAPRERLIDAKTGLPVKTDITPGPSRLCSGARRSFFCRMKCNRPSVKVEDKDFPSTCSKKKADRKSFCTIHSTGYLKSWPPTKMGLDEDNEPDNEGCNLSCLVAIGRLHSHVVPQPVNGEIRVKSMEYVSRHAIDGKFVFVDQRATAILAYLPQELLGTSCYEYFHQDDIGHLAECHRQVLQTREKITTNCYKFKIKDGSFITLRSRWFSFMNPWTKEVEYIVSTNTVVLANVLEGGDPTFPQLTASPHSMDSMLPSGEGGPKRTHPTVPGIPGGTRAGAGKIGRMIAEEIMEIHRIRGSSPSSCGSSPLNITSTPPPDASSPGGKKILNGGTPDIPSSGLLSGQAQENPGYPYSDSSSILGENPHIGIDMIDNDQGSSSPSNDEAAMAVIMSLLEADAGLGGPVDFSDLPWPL

B1: His-JNK3 (activated human JNK3 (JNK3α1) with an N-terminal histidine-tag) (enzyme, UniProt P53779-2 1-422, looked up)
chain: MSLHFLYYCSEPTLDVKIAFCQGFDKQVDVSYIAKHYNMSKSKVDNQFYSVEVGDSTFTVLKRYQNLKPIGSGAQGIVCAAYDAVLDRNVAIKKLSRPFQNQTHAKRAYRELVLMKCVNHKNIISLLNVFTPQKTLEEFQDVYLVMELMDANLCQVIQMELDHERMSYLLYQMLCGIKHLHSAGIIHRDLKPSNIVVKSDCTLKILDFGLARTAGTSFMMTPYVVTRYYRAPEVILGMGYKENVDIWSVGCIMGEMVRHKILFPGRDYIDQWNKVIEQLGTPCPEFMKKLQPTVRNYVENRPKYAGLTFPKLFPDSLFPADSEHNKLKASQARDLLSKMLVIDPAKRISVDDALQHPYINVWYDPAEVEAPPPQIYDKQLDEREHTIEEWKELIYKEVMNSEEKTKNGVVKGQPSPSAQVQQ
notes: Expressed in Sf9 cells by recombinant baculovirus, purified with Probond Resin; not shown: N-terminal His-tag and vector residues of pFastBac HT
Regarding B1, the binding result in test [1] and in test [2] was “binds” throughout.
